± gives the uncertainty stated by the source.

This is an account of results in the supplement of paper PMC7877785.

A short description of the series: self-splicing fitness, log relative to wild type (ln ratio); higher = more splicing; Tetrahymena group I intron in knt gene, E. coli kanamycin selection, DiMSum; sequences stand for … in CUCUCU…GGAGGGAAAAGUUAUCAGGCAUGCACCUGGUAGCUAGUCUUUAAACCAAUAGAUUGCAUCGGUUUAAAAGGCAAGACCGUCAAAUUGCGGGAAAGGGGUCAACAGCCGUUCAGUACCAAGUCUCAGGGGAAACUUUGAGAUGGCCUUGCAAAGGGUAUGGUAAUAAGCUGACGGACAUGGUCCUAACCACGCAGCCAAGUCCUAAGUCAACAGAUCUUCUGUUGAUAUGGAUGCAGUUCACAGACUAAAUGUCGGUCGGGGAAGAUGUAUUCUUCUCAUAAGAUAUAGUCGGACCUCUCCUUAAUGGGAGCUAGCGGAUGAAGUGAUGCAACACUGGAGCCGCUGGGAACUAAUUUGUAUGCGAAAGUAUAUUGAUUAGUUUUGGAGUACUCGUGGUCG
The method, boiled down:
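DiMSum derived fitness as the error-weighted combination of fold changes across replicates, kanamycin versus no kanamycin, normalised to wild type. E. coli BL21(DE3) held the library, which randomised all eight P1ex-region intron nucleotides within the knt kanamycin-resistance gene on pET-22b(+). Six replicate transformations grew overnight at 37°C or 30°C on LB agar with or without 25 μg/mL kanamycin, also containing 100 μg/mL carbenicillin, 50 μM IPTG and 0.2% rhamnose, and pooled colonies were amplicon-sequenced on an Illumina HiSeq 2500.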

With GGUAAGCAAUAUUACGCCGC, the “self-splicing fitness (ln)” value runs as follows: (30 °C) -3.46 ± 0.43; (37 °C) -1.41 ± 0.27. Taken in the same sequence, the figures for UUUUAGCAAUAUUACGUGCU were -2.43 ± 0.47 and -0.459 ± 0.22. Taken in the same sequence, the figures for AGGAAGCAAUAUUACGGGGA were -2.97 ± 0.2 and -2.38 ± 0.16. Turning to CAGUAGCAAUAUUACGGCGA, the “self-splicing fitness (ln)” value reads like this: (30 °C) -2.45 ± 0.26; (37 °C) -1.9 ± 0.29. On the same counts, the results for UAGGAGCAAUAUUACGGGCU are -3.12 ± 0.48 and -1.64 ± 0.4. Taken in the same sequence, the figures for UUAGAGCAAUAUUACGUCGC were -3.05 ± 0.47 and -1.76 ± 0.37. Taken in the same sequence, the figures for AGUGAGCAAUAUUACGUGUU were -4.67 ± 0.46 and -3.04 ± 0.25. Consider CGAAAGCAAUAUUACGGUAU, for which the “self-splicing fitness (ln)” value was -3.81 ± 0.29 (30 °C) and -1.2 ± 0.19 (37 °C).

Consider CUAUAGCAAUAUUACGCAAG, for which the “self-splicing fitness (ln)” value (30 °C) is -3.11 ± 0.2 and the “self-splicing fitness (ln)” value (37 °C) was -2.22 ± 0.18. Taken in the same sequence, the figures for CAUUAGCAAUAUUACGUGAC were -3.18 ± 0.26 and -1.58 ± 0.33.

Turning to AGAGAGCAAUAUUACGACGU, the “self-splicing fitness (ln)” value is -1.84 ± 0.15 (30 °C) and -0.382 ± 0.15 (37 °C). Taken in the same sequence, the figures for GUAUAGCAAUAUUACGGUUU were -0.844 ± 0.089 and -1.29 ± 0.16. For UCUUAGCAAUAUUACGGGAA, the “self-splicing fitness (ln)” value (37 °C) was -0.457 ± 0.3. Regarding CUAAAGCAAUAUUACGUAGG, the “self-splicing fitness (ln)” value reads like this: (30 °C) -1.15 ± 0.088; (37 °C) -1.2 ± 0.11. On the same counts, the results for CUCGAGCAAUAUUACGUUAG are -3.81 ± 0.21 and -1.37 ± 0.14. Taken in the same sequence, the figures for UGAUAGCAAUAUUACGGAUA were -3.57 ± 0.25 and -1.6 ± 0.19. On the same counts, the results for UUGCAGCAAUAUUACGCCAU are -2.8 ± 0.11 and -2.49 ± 0.16. Regarding CACCAGCAAUAUUACGAUAA, the “self-splicing fitness (ln)” value by setting is: (30 °C) -4.88 ± 0.31; (37 °C) -2.14 ± 0.19. In the case of ACGCAGCAAUAUUACGAGUG, the “self-splicing fitness (ln)” value reads like this: (30 °C) -2.14 ± 0.052; (37 °C) -1.32 ± 0.062. For CCGGAGCAAUAUUACGUUGU, the “self-splicing fitness (ln)” value is -2.59 ± 0.21 (30 °C) and -2.56 ± 0.26 (37 °C). Taken in the same sequence, the figures for CAUCAGCAAUAUUACGUUCG were 0.13 ± 0.046 and -0.286 ± 0.063. On the same counts, the results for AACGAGCAAUAUUACGUGGG are -3.94 ± 0.15 and -2.7 ± 0.12. Taken in the same sequence, the figures for CCUGAGCAAUAUUACGGAGG were -3.56 ± 0.24 and -2.54 ± 0.26. On to GUCCAGCAAUAUUACGAAAA, for which the “self-splicing fitness (ln)” value (30 °C) was -1.1 ± 0.2 and the “self-splicing fitness (ln)” value (37 °C) was -0.701 ± 0.13. On the same counts, the results for CCCUAGCAAUAUUACGCUGU are -4.59 ± 0.31 and -2.63 ± 0.21. On the same counts, the results for CAAUAGCAAUAUUACGGGCA are -2.46 ± 0.28 and -2.89 ± 0.25. On the same counts, the results for CUGAAGCAAUAUUACGAACA are -2.82 ± 0.41 and -2.11 ± 0.23. With ACAUAGCAAUAUUACGUUAA, the “self-splicing fitness (ln)” value is, setting by setting: (30 °C) -3.09 ± 0.19; (37 °C) -1.36 ± 0.15.

Regarding UGACAGCAAUAUUACGACAA, the “self-splicing fitness (ln)” value was -0.197 ± 0.087 (30 °C) and 0.15 ± 0.1 (37 °C).

With CUGAAGCAAUAUUACGCUGU, the “self-splicing fitness (ln)” value is, setting by setting: (30 °C) -3.65 ± 0.2; (37 °C) -2.75 ± 0.24. Take AGGAAGCAAUAUUACGCGUA: the “self-splicing fitness (ln)” value reads like this: (30 °C) -1.87 ± 0.15; (37 °C) -0.669 ± 0.11. Regarding AUGUAGCAAUAUUACGAACC, the “self-splicing fitness (ln)” value was -1 ± 0.18 (30 °C) and -0.513 ± 0.22 (37 °C).

On to CCCAAGCAAUAUUACGCUAG, for which the “self-splicing fitness (ln)” value runs as follows: (30 °C) -2.63 ± 0.19; (37 °C) -2.72 ± 0.31.

With AAGAAGCAAUAUUACGAACC, the “self-splicing fitness (ln)” value reads like this: (30 °C) -0.581 ± 0.14; (37 °C) -0.25 ± 0.17.

Turning to GAUAAGCAAUAUUACGGCUU, the “self-splicing fitness (ln)” value was -0.701 ± 0.1 (30 °C) and -0.0417 ± 0.14 (37 °C). Consider ACGAAGCAAUAUUACGAUAG, for which the “self-splicing fitness (ln)” value (30 °C) was -3.09 ± 0.23 and the “self-splicing fitness (ln)” value (37 °C) is -1.87 ± 0.21. On the same counts, the results for CUAAAGCAAUAUUACGGGGC are -2.86 ± 0.36 and -2.78 ± 0.28. On to UCCCAGCAAUAUUACGCGAU, for which the “self-splicing fitness (ln)” value is, setting by setting: (30 °C) -3.29 ± 0.21; (37 °C) -2.64 ± 0.21.

In the case of GACGAGCAAUAUUACGAAUC, the “self-splicing fitness (ln)” value (37 °C) is -2.14 ± 0.4. On to GGCCAGCAAUAUUACGUCUG, for which the “self-splicing fitness (ln)” value was -3.07 ± 0.24 (30 °C) and -2.93 ± 0.32 (37 °C). AAGUAGCAAUAUUACGGAAG: the “self-splicing fitness (ln)” value (30 °C) is -2.96 ± 0.19 and the “self-splicing fitness (ln)” value (37 °C) is -2.44 ± 0.37. On the same counts, the results for CCUAAGCAAUAUUACGUGUG are -1.83 ± 0.057 and -1.49 ± 0.075. On the same counts, the results for GGUUAGCAAUAUUACGGCAU are -0.0374 ± 0.082 and -0.0754 ± 0.096. As to GAAAAGCAAUAUUACGGCCU, the “self-splicing fitness (ln)” value was -0.569 ± 0.12 (30 °C) and 0.296 ± 0.14 (37 °C).

With ACGUAGCAAUAUUACGUUCU, the “self-splicing fitness (ln)” value was -2.3 ± 0.097 (30 °C) and -0.807 ± 0.076 (37 °C).

With AGGAAGCAAUAUUACGACUC, the “self-splicing fitness (ln)” value reads like this: (30 °C) -0.644 ± 0.3; (37 °C) -0.886 ± 0.45. On the same counts, the results for ACCCAGCAAUAUUACGUAAC are -1.49 ± 0.065 and -1.17 ± 0.1.

In the case of GGGUAGCAAUAUUACGGCCG, the “self-splicing fitness (ln)” value is -0.902 ± 0.086 (30 °C) and -0.295 ± 0.15 (37 °C). Taken in the same sequence, the figures for GCCCAGCAAUAUUACGUUGA were -1.72 ± 0.11 and -1.25 ± 0.12. With GUGGAGCAAUAUUACGGAAC, the “self-splicing fitness (ln)” value (37 °C) is -0.66 ± 0.45. UAUUAGCAAUAUUACGAGCG: the “self-splicing fitness (ln)” value is -0.705 ± 0.11 (30 °C) and -0.219 ± 0.15 (37 °C). CGCCAGCAAUAUUACGAUAU: the “self-splicing fitness (ln)” value by setting is: (30 °C) -3.92 ± 0.22; (37 °C) -2.14 ± 0.2. On the same counts, the results for AAGCAGCAAUAUUACGUCUG are -4.47 ± 0.37 and -1.72 ± 0.26. On the same counts, the results for UCCCAGCAAUAUUACGUAAG are -3.88 ± 0.18 and -1.97 ± 0.17. Taken in the same sequence, the figures for UUAAAGCAAUAUUACGAACU were -0.567 ± 0.11 and -0.0402 ± 0.12. Take UCGAAGCAAUAUUACGGAAU: the “self-splicing fitness (ln)” value is -3.57 ± 0.24 (30 °C) and -1.91 ± 0.23 (37 °C). For the sequence GGGGAGCAAUAUUACGAUGU, the “self-splicing fitness (ln)” value is -1.64 ± 0.25 (30 °C) and -1.55 ± 0.35 (37 °C).

Consider UUUAAGCAAUAUUACGAGUC, for which the “self-splicing fitness (ln)” value (37 °C) is -2.65 ± 0.48.

Regarding CUAGAGCAAUAUUACGGCGU, the “self-splicing fitness (ln)” value runs as follows: (30 °C) -4.02 ± 0.26; (37 °C) -0.833 ± 0.16. Taken in the same sequence, the figures for UAUGAGCAAUAUUACGGAUU were -2.96 ± 0.28 and -2.28 ± 0.31. On the same counts, the results for CCCUAGCAAUAUUACGAUCU are -3.92 ± 0.28 and -2.74 ± 0.24. As for UUAGAGCAAUAUUACGCGCA, the “self-splicing fitness (ln)” value is -0.808 ± 0.12 (30 °C) and -0.112 ± 0.16 (37 °C). On the same counts, the results for ACCGAGCAAUAUUACGUCGA are -3.13 ± 0.24 and -2.12 ± 0.15.

UUGGAGCAAUAUUACGUUGG: the “self-splicing fitness (ln)” value was -1.5 ± 0.27 (30 °C) and -2.92 ± 0.28 (37 °C). Taken in the same sequence, the figures for AGGUAGCAAUAUUACGCCUA were -0.599 ± 0.019 and -0.197 ± 0.035. Regarding GGUGAGCAAUAUUACGCGAG, the “self-splicing fitness (ln)” value (37 °C) is -1.97 ± 0.18.

Regarding UGUGAGCAAUAUUACGAGCU, the “self-splicing fitness (ln)” value was -2.7 ± 0.26 (30 °C) and -2.14 ± 0.41 (37 °C). Taken in the same sequence, the figures for ACUUAGCAAUAUUACGAGGA were -1.87 ± 0.16 and -1.66 ± 0.23. On the same counts, the results for CCCUAGCAAUAUUACGUGAC are -2.85 ± 0.15 and -2.29 ± 0.34. In the case of CGCGAGCAAUAUUACGGACC, the “self-splicing fitness (ln)” value (37 °C) was -1.47 ± 0.31.

ACUGAGCAAUAUUACGGUAC: the “self-splicing fitness (ln)” value (30 °C) is -3.19 ± 0.48. On to AGCAAGCAAUAUUACGACGC, for which the “self-splicing fitness (ln)” value (30 °C) is -1.09 ± 0.11 and the “self-splicing fitness (ln)” value (37 °C) was found to be 0.048 ± 0.12.

For GCAUAGCAAUAUUACGCCGG, the “self-splicing fitness (ln)” value (30 °C) is -3 ± 0.28 and the “self-splicing fitness (ln)” value (37 °C) was -1.01 ± 0.2.

Consider AAGCAGCAAUAUUACGGCCG, for which the “self-splicing fitness (ln)” value by setting is: (30 °C) -0.9 ± 0.11; (37 °C) -0.057 ± 0.17. With UUCGAGCAAUAUUACGUAAA, the “self-splicing fitness (ln)” value was -2.48 ± 0.19 (30 °C) and -1.07 ± 0.16 (37 °C). With CAACAGCAAUAUUACGAGUU, the “self-splicing fitness (ln)” value (30 °C) is -2.6 ± 0.096 and the “self-splicing fitness (ln)” value (37 °C) was -2.09 ± 0.13. On the same counts, the results for CCAAAGCAAUAUUACGUAGG are -3.85 ± 0.18 and -1.66 ± 0.12.
